Source: paper PMC6771166

Experiment: 5′-nucleotidase kit, transfected PLC/PRF/5 lysates
Conditions: glycan lost; control: wild type

Protein | enzymatic_activity, percent_of_wt
CD73 (ecto‐5′‐nucleotidase): N311Q (protein) parent chain: MCPRAARAPATLLLALGAVLWPAAGAWELTILHTNDVHSRLEQTSEDSSKCVNASRCMGGVARLFTKVQQIRRAEPNVLLLDAGDQYQGTIWFTVYKGAEVAHFMNALRYDAMALGNHEFDNGVEGLIEPLLKEAKFPILSANIKAKGPLASQISGLYLPYKVLPVGDEVVGIVGYTSKETPFLSNPGTNLVFEDEITALQPEVDKLKTLNVNKIIALGHSGFEMDKLIAQKVRGVDVVVGGHSNTFLYTGNPPSKEVPAGKYPFIVTSDDGRKVPVVQAYAFGKYLGYLKIEFDERGNVISSHGNPILLNSSIPEDPSIKADINKWRIKLDNYSTQELGKTIVYLDGSSQSCRFRECNMGNLICDAMINNNLRHTDEMFWNHVSMCILNGGGIRSPIDERNNGTITWENLAAVLPFGGTFDLVQLKGSTLKKAFEHSVHRYGQSTGEFLQVGGIHVVYDLSRKPGDRVVKLDVLCTKCRVPSYDPLKMDEVYKVILPNFLANGGDGFQMIKDELLRHDSGDQDINVVSTYISKMKVIYPAVEGRIKFSTGSHCHGSFSLIFLSLWAVIFVLYQ | decreases
CD73 (ecto‐5′‐nucleotidase): N333Q (protein) parent chain: MCPRAARAPATLLLALGAVLWPAAGAWELTILHTNDVHSRLEQTSEDSSKCVNASRCMGGVARLFTKVQQIRRAEPNVLLLDAGDQYQGTIWFTVYKGAEVAHFMNALRYDAMALGNHEFDNGVEGLIEPLLKEAKFPILSANIKAKGPLASQISGLYLPYKVLPVGDEVVGIVGYTSKETPFLSNPGTNLVFEDEITALQPEVDKLKTLNVNKIIALGHSGFEMDKLIAQKVRGVDVVVGGHSNTFLYTGNPPSKEVPAGKYPFIVTSDDGRKVPVVQAYAFGKYLGYLKIEFDERGNVISSHGNPILLNSSIPEDPSIKADINKWRIKLDNYSTQELGKTIVYLDGSSQSCRFRECNMGNLICDAMINNNLRHTDEMFWNHVSMCILNGGGIRSPIDERNNGTITWENLAAVLPFGGTFDLVQLKGSTLKKAFEHSVHRYGQSTGEFLQVGGIHVVYDLSRKPGDRVVKLDVLCTKCRVPSYDPLKMDEVYKVILPNFLANGGDGFQMIKDELLRHDSGDQDINVVSTYISKMKVIYPAVEGRIKFSTGSHCHGSFSLIFLSLWAVIFVLYQ | decreases
